In the data set the target is T1, CsNAC17 (Camellia sinensis, UniProt A0A4S4ETT7 1-357).
T1 chain: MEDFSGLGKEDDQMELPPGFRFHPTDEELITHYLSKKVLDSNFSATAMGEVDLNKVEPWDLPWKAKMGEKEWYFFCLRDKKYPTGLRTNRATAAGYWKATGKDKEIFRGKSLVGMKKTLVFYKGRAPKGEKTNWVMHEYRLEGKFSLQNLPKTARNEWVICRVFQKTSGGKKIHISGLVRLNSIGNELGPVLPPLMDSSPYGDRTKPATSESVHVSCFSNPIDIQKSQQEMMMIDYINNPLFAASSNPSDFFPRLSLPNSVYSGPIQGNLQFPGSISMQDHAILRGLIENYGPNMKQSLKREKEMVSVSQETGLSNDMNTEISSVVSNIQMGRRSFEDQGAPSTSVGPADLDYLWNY
Put plainly: EMSA; LightShift Chemiluminescent EMSA Kit; buffer, salt, pH and temperature not stated. The conditions noted are these: protein: recombinant; tags: GST (pGEX-6p-1); chain copies: 0; label: biotin (hot probe); blunt. Background: A gel shift assay detects complexes by their altered migration in electrophoresis.

Results on two molecules are retold here after article PMC11822394, “CsNAC17 enhances resistance to Colletotrichum gloeosporioides by interacting with CsbHLH62 in Camellia sinensis”.

B1: ProCsRPM1-CATGTG probe (dsDNA)
DNA 1: TTTTAGACATGTGTTTCCCA
DNA 2: TGGGAAACACATGTCTAAAA
Consider B1, for which the binding result is given as “binds”.

B2: ProCsRPM1-CACG probe (dsDNA)
DNA 1: CTACGTAGCACGGTCCTATT
DNA 2: AATAGGACCGTGCTACGTAG
On to B2, for which the binding result is “binds”.
